Experimental data taken from patent publication US20220048996A1 (F STAR BETA, published 2022).
Blank lines part the entries; values can stand above or below the binder they belong to.

What was measured:
[1] = biological target: T1, human OX40 expressed on DO11.10 cells (DO11.10-hOX40) (human, UniProt P43489 29-277); assay: flow cytometry on DO11.10 cells expressing the target
T1 construct: Also used here for OX40 on primary human T cells in the functional rows; also called human OX40 receptor; OX40 on human T cells
T1 sequence: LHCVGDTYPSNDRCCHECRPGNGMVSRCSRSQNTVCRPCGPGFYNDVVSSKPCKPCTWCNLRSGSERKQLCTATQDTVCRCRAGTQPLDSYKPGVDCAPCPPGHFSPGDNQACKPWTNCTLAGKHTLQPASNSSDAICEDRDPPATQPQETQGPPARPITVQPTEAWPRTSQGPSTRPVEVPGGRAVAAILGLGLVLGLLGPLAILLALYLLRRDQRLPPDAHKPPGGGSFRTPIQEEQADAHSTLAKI
Description: (§1) 50 μl of the antibody dilutions were added to the wells containing cells (final volume 100 μl) and incubated at 4° C. for 1 hour. […] The plates were washed and resuspended in 100 μl of PBS containing DAPI (Biotium, cat no 40043) at 1 μg/ml. The plates were analysed using a Canto II flow cytometer (BD Bioscience) and the data analysed using FlowJo. Dead cells were identified by their higher fluorescence on the UV (405 nm/450/50) channel and excluded from analysis. […] The GMFI data was fit using log (agonist) vs response (three parameters) in Graph Pad Prism Software to generate EC₅₀ values.

[2] = biological target: T2, cynomolgus OX40 expressed on DO11.10 cells (DO11.10-cOX40) (cynomolgus, UniProt P43489 29-277 (human entry)); assay: as above
T2 chain: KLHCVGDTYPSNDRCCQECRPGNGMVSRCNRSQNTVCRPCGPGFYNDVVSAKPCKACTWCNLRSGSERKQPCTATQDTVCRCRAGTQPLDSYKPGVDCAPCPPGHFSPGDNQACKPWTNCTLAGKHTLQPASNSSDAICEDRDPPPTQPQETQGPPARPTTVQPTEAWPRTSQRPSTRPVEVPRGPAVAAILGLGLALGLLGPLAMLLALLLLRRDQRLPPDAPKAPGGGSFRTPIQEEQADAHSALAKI
Description: as §1

[3] = biological target: T3, hOX40-mFc (human); assay: SPR, antibody captured via anti-human Fab, antigen flowed
T3 construct: Dimeric; also called human OX40-mFc
T3 chain: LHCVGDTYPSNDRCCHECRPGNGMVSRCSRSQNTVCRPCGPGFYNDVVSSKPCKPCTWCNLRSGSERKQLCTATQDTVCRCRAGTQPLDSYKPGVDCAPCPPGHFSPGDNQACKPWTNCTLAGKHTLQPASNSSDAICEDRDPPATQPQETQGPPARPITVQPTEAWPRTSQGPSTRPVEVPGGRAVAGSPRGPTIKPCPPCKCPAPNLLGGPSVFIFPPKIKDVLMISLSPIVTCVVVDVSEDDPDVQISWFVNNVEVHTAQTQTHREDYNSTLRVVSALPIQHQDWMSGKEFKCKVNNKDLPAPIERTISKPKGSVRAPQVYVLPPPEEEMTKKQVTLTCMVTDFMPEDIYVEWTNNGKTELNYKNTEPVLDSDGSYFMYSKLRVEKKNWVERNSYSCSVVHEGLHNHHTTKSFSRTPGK

[4] = biological target: T4, cOX40-mFc (cynomolgus); assay: as above
T4 construct: Dimeric; also called cyno OX40-mFc
T4 chain: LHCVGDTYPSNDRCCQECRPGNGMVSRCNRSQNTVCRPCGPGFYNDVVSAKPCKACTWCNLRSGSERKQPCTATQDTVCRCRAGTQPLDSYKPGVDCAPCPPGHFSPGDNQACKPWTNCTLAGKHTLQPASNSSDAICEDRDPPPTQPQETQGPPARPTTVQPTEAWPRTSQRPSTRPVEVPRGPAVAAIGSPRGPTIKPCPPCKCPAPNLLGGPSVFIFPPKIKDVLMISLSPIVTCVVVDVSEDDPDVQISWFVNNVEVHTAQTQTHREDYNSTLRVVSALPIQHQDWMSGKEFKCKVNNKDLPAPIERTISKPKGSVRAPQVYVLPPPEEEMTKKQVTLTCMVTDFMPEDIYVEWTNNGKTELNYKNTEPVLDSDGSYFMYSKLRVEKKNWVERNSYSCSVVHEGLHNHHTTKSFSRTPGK

[5] = biological target: T5, mouse OX40 expressed on DO11.10 cells (DO11.10-mOX40) (mouse, UniProt P47741 20-272); assay: flow cytometry, fluorescently-labelled antibody on DO11.10-mOX40
T5 construct: Also used here for OX40 on primary mouse T cells in the functional rows; also called OX40 on mouse T cells
T5 sequence: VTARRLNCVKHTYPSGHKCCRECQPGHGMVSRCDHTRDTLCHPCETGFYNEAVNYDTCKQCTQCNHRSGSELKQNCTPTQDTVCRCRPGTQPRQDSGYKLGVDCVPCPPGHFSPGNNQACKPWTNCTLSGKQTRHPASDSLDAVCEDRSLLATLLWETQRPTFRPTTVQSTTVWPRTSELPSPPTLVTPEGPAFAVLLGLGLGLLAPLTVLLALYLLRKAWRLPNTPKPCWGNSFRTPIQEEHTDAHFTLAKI

[6] = biological target: T1, human OX40 expressed on DO11.10 cells …; assay: flow cytometry on DO11.10 cells expressing the target, three experiments
Description: as §1
(§2) However, in this experiment, instead of using HEK cells to analyse the non-specific binding, non-transduced DO11.10 cells were used. […] The experiment was repeated three times to increase the reliability of the EC₅₀ values calculated.

[7] = biological target: T2, cynomolgus OX40 expressed on DO11.10 …; assay: as above
Description: as §1, §2

[8] = biological target: T6, cynomolgus CD137 expressed on DO11.10 cells (DO11.10-cCD137) (cynomolgus monkey, UniProt Q07011 24-255 (human entry)); assay: flow cytometry on DO11.10 cells expressing the target, mean ± SD of three experiments
T6 chain: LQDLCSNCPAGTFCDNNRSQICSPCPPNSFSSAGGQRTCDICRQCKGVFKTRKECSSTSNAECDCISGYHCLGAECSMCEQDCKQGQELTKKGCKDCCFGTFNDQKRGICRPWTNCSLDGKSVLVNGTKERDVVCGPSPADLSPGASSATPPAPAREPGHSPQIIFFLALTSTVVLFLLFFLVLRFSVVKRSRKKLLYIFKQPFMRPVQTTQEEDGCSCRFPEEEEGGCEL
Description: as §1, §2

[9] = biological target: T7, human CD137 expressed on DO11.10 cells (DO11.10-hCD137) (human, UniProt Q07011 24-255); assay: as above
T7 construct: also called CD137 on human T cells
Description: as §1, §2

binding result [1]: no binding
binding result [2]: no binding
binding result [3]: no binding (tested: 200 nM)
binding result [4]: no binding (tested: 200 nM)
B1: G1/MOR7480.1 (antibody, human IgG1, lambda)
heavy: not shown
light: SYELTQPPSVSVSPGQTASITCSGDNIGDQYAHWYQQKPGQSPVLVIYQDKNRPSGIPERFSGSNSGNTATLTISGTQAMDEADYYCATYTGFGSLAVFGGGTKLTVLGQPKAAPSVTLFPPSSEELQANKATLVCLISDFYPGAVTVAWKADSSPVKAGVETTTPSKQSNNKYAASSYLSLTPEQWKSHRSYSCQVTHEGSTVEKTVAPTECS
notes: also called G1/M0R7480.1

fluorescence over non-transduced cells (fold) [5]: ≥ 10 fold
B2: antibody OX86 (Biolegend cat no 119408) (antibody, V domains shown)
VH: QVQLKESGPGLVQPSQTLSLTCTVSGFSLTGYNLHWVRQPPGKGLEWMGRMRYDGDTYYNSVLKSRLSISRDTSKNQVFLKMNSLQTDDTAIYYCTRDGRGDSFDYWGQGVMVTVSS
VL: DIVMTQGALPNPVPSGESASITCRSSQSLVYKDGQTYLNWFLQRPGQSPQLLTYWMSTRASGVSDRFSGSGSGTYFTLKISRVRAEDAGVYYCQQVREYPFTFGSGTKLEIK

binding result [6]: no binding
binding result [7]: no binding
EC50 [8]: 90 pM
EC50 [9]: 100 pM
B3: G1/FS30-10-16 (antibody, IgG1, V domains shown)
VH: EVQLLESGGGLVQPGGSLRLSCAASGFTFSSYDMSWVRQAPGKGLEWVSDIDPTGSKTDYADSVKGRFTISRDNSKNTLYLQMNSLRAEDTAVYYCARDLLVYGFDYWGQGTLVTVSS
VL: EIVLTQSPGTLSLSPGERATLSCRASQSVSSSYLAWYQQKPGQAPRLLIYGASSRATGIPDRFSGSGSGTDFTLTISRLEPEDFAVYYCQQSYSYPVTFGQGTKVEIKR
notes: IgG1 format; also called CD137 Fab (in IgG1 format; FS30-010-016)
